Measured values: patent US8470780B2, “Methods and compositions related to targeting wounds, regenerating tissue, and tumors” (Sanford-Burnham Medical Research Institute, priority 2006, dated 2013)

Tests used:
[1] = test system: full thickness skin wounds; assay: Accumulation of intravenously injected decorins in wound tissue (anti-6-histidine tag staining); format: in vivo, mice; details: daily intravenous injections Days 3-5; evaluated Day 5
Protocol: Mice with full thickness skin wounds, received daily intravenous injections as indicated on Days 3-5 after the wounding (n=4 per group, 2 wounds per animal). On Day 5, the presence of decorins was evaluated with anti-6-histidine tag antibody (which stains brown) by examining two sections from each wound.
Six 8-week-old male BALB/c mice were anesthetized with intraperitoneally-injected 2.5% avertin Skin was shaved, cleaned, and disinfected with betadine and 70% alcohol. All animal experiments received approval from the IACUC of Burnham Institute for Medical Research. Treatment trials were conducted on mice that had circular, 8 mm-diameter, full thickness (including panniculus carnosus muscle) excision wounds in the dorsal skin. […]
(§1) The treatments were started three days after wounding and consisted of daily tail vein injections. […] The ratio was reversed from Day 7 based on previously determined homing profiles of CRK and CAR phage to wounds at different time-points. The wounds were inspected and photographed daily, and scored for complete re-epithelialization. […]
Frozen sections were fixed in acetone for 10 min and pre-incubated with 0.5% blocking reagent for 1 hr (NEN Life Sciences, Boston, Mass.). […] The primary antibodies were detected with corresponding secondary antibodies, and each staining experiment included slides stained with species-matched immunoglobulins as negative controls. […]

[2] = test system: full thickness excision wounds in the dorsal skin; assay: Skin wound healing treatment with decorins; format: in vivo, mice
Protocol: Next, the effect of the homing peptide decorins on wound healing was examined. The daily dose of 40 μg/day was chosen based on previous decorin studies (Seidler 2006; Yang 1999). The dose was doubled on Days 4-6, coincident with the peak in TGF-β expression in wounds (Brunner 2004; Yang 1999). The treatments were started on Day 3 after wounding, when granulation tissue first forms in wounds (Brunner 2004), and continued for 7,9, or 11 days in three independent treatment experiments. Several parameters commonly used to assess wound repair and scarring were measured (Ashcroft 1999; Cheon 2006; Shah 1995). […]
as §1
Image analysis and quantification of granulation tissue/wound area, and hyperproliferative epidermis were done using ImageJ program (NIH, Bethesda, […].). The wounds were cut in the middle, one section from each side of the wound was evaluated, and the average of these two values was used in the analysis. The length of hyperproliferative epidermis and size of the wound tissue were determined from the Masson trichrome stained tissue sections. […]

[3] = test system: CHO-K cells; assay: CHO-K cell proliferation with decorins; format: cell-based, Chinese hamster; details: 0.3 μg/ml/day of decorins
Protocol: The effect of decorin preparations on CHO-K cell proliferation was determined as described previously (Yamaguchi 1990; Yamaguchi 1988). The cells were grown in media containing fetal bovine serum that had been dialyzed in a dialysis cassette (Pierce, Rockford, Ill.). The cells were plated in duplicate at a density of 2×10^4 cells per well in 24-well plates and cultured in 600 μl of culture media. Half of the medium was replaced daily with fresh medium containing decorin. Cells were collected by trypsinization, washed and resuspended in 1 ml of PBS containing 2 μg/ml of propidium iodide (PI) and 20,000 CountBright counting beads (Invitrogen, Carlsbad, Calif.), and analyzed by counting 1,000 beads in FACS. Cell number was also determined by hemocytometer.

B1: decorin: recombinant his-tagged human decorin, small leucine-rich chondroitin sulfate proteoglycan (protein, UniProt P07585 31-359, looked up)
Decorin: DEASGIGPEVPDDRDFEPSLGPVCPFRCQCHLRVVQCSDLGLDKVPKDLPPDTTLLDLQNNKITEIKDGDFKNLKNLHALILVNNKISKVSPGAFTPLVKLERLYLSKNQLKELPEKMPKTLQELRAHENEITKVRKVTFNGLNQMIVIELGTNPLKSSGIENGAFQGMKKLSYIRIADTNITSIPQGLPPSLTELHLDGNKISRVDAASLKGLNNLAKLGLSFNSISAVDNGSLANTPHLRELHLDNNKLTRVPGGLAEHKYIQVVYLHNNNISVVGSSDFCPPGHNTKKASYSGVSLFSNPVQYWEIQPSTFRCVYVRSAIQLGNYK
modifications: His-tag
notes: recombinant his-tagged human decorin, small leucine-rich chondroitin sulfate proteoglycan
Q: With B1 as the molecule, how does the “decorin staining in skeletal muscle underlying the skin wounds” value [1] read?
A: No decorin-staining

Q: What about the “decorin staining in wounds” value [1] of the same molecule?
A: weakly positive for decorin staining

Q: What about the “change in granulation tissue/scar area” value ([2]; Day 14 after wounding) of the same molecule?
A: no statistically significant changes

Q: What about the “prevention of scar formation” value ([2]; equivalent doses) of the same molecule?
A: inactive

Q: What about the “inhibition of CHO-K cell proliferation” value [3] of the same molecule?
A: inhibited the proliferation of the CHO-K cells at high concentrations
